{
  "source": "IntAct's records for PubMed 23353685",
  "parents": {"B1": {"name": "Beta-arrestin-1 (Homo sapiens), P49407 (parent)", "chain": "MGDKGTRVFKKASPNGKLTVYLGKRDFVDHIDLVDPVDGVVLVDPEYLKERRVYVTLTCAFRYGREDLDVLGLTFRKDLFVANVQSFPPAPEDKKPLTRLQERLIKKLGEHAYPFTFEIPPNLPCSVTLQPGPEDTGKACGVDYEVKAFCAENLEEKIHKRNSVRLVIRKVQYAPERPGPQPTAETTRQFLMSDKPLHLEASLDKEIYYHGEPISVNVHVTNNTNKTVKKIKISVRQYADICLFNTAQYKCPVAMEEADDTVAPSSTFCKVYTLTPFLANNREKRGLALDGKLKHEDTNLASSTLLREGANREILGIIVSYKVKVKLVVSRGGLLGDLASSDVAVELPFTLMHPKPKEEPPHREVPENETPVDTNLIELDTNDDDIVFEDFARQRLKGMKDDKEEEEDGTGSPQLNNR"}},
  "data": [
    {"variants_of": "B1", "conditions": "with gnas1_human GNAS", "values": [
      {"variant": "MGDKGTRVFKKASPNGKLTVYLGKRDFVDHIDKVDPVDGVVLVDPEYLKERRVYVTLTCAFRYGREDLDVLGLTFRKDLFVANVQSFPPAPEDKKPLTRLQERLIKKLGEHAYPFTFEIPPNLPCSVTLQPGPEDTGKACGVDYEVKAFCAENLEEKIHKRNSVRLVIRKVQYAPERPGPQPTAETTRQFLMSDKPLHLEASLDKEIYYHGEPISVNVHVTNNTNKTVKKIKISVRQYADICLFNTAQYKCPVAMEEADDTVAPSSTFCKVYTLTPFLANNREKRGLALDGKLKHEDTNLASSTLLREGANREILGIIVSYKVKVKLVVSRGGLLGDLASSDVAVELPFTLMHPKPKEEPPHREVPENETPVDTNLIELDTNDDDIVFEDFARQRLKGMKDDKEEEEDGTGSPQLNNR", "note": "[L33K]", "effect of a mutation on the interaction": "decreasing interaction"}
    ]}
  ]
}
